From the nanobody polyreactivity screen of Harvey et al. (2022)

Assay: yeast display, Sf9 membrane polyspecificity reagent, FACS + sequencing; frameworks hold sequencing errors
Summary of the method: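 A synthetic nanobody library was expressed on Saccharomyces cerevisiae BJ5465 by galactose induction for 36–48 hours. The library was stained for 1 hour at 4 °C with 10% biotinylated, detergent-solubilized Sf9 membrane reagent and enriched with streptavidin microbeads before FACS. Low and high (top ~1%) gates were set on anti-HA fluorescence for expression and streptavidin fluorescence for reagent binding, and each polyreactivity label reflects the gate of origin.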

| Sequence | polyreactivity (PSR sort gate) |
| --- | --- |
| QVQLVESGGGLVQAGGSLRLSCAASGSIFNYYTMGWYRQAPGKERELVAVITWSDDSTYYADSVKGRFTISRDNAKNTVYLQMNSLKPEDTAVYYCNARSWGWYRIAYGYWGQGTQVTVSS | low polyreactivity |
| QVQLVESGGGLVQAGGSLRLSCAASGSIFPAYDMGWYRQAPGKERELVAAIDRGGSTYYADSVKGRFTISRDNAKNTVYLQMNSLKPEDTAVYYCATDGQEYPNYISSAGFDYWGQGTQVTVSS | low polyreactivity |
| QVQLVESGGGLVQAGGSLRLSCAASGSIFPDYAMGWYRPAPGKERELVAAIDTSTTDTYYADSVKGRFTISRDNAKNTVYLQMKSQKPEDTAVYYSAADAYDDPYGFWGQGTQVTVSS | high polyreactivity |
| QVQLVESGGGLVQAGGSLRLSCAASGSIFPDYAMGWYRQAPGKERELVAADSVKGRFTISRDNAKNTVYLQMNSLKPEDTAVYYCNKDYIIRRGPIVYYGFDYWGQGNQVTVSS | low polyreactivity |
| QVQLVESGGGLVQAGGSLRLSCAASGSIFPDYAMGWYRQAPGKERELVAAITWRDDSTYFADSVKGRFTISRDNAKNTVYLQMNSLKPEDTAVYYCNASALDPLYAKDEYWGQGTQVTVSS | low polyreactivity |
| QVQLVESGGGLVQAGGSLRLSCAASGSIFPDYAMGWYRQAPGKERELVAGISSNSGSTYYADSVKGRFTISRDNAKNTVYLQMTSLKPEDTAVYYCAKDSFWRDTGYTDGDYWGQGTQVTVSS | low polyreactivity |
| QVQLVESGGGLVQAGGSLRLSCAASGSIFPGNAMGWYRQEPRKERELVAAITKGDGSTNYADSVKGRFTISRDNAKNTVYLQLNSLITEDTAVYYCADRSRVFGYQGYDYWGQGTQVTVSS | low polyreactivity |
| QVQLVESGGGLVQAGGSLRLSCAASGSIFPGYAMGWDRQAPGKERQLVATITWSGGSTYYADSVKGRFTISRDNAKNTVYLQMNSLKPEDTAVYYCIADSNWYYQWNYYGLYDYWGQGTQVTVSS | low polyreactivity |
| QVQLVESGGGLVQAGGSLRLSCAASGSIFPGYAMGWSRQAPGKERELVATISTGGSTYYADSVKGRFTISRDNAKNTVYLQMNSLKPEDTAVYYCNADIRSYLRYSLRRYDDYDYWGQGTQVTVSS | low polyreactivity |
| QVQLVESGGGLVQAGGSLRLSCAASGSIFPGYAMGWYRQAPGKERELVATITWSASETYYADSVKGRFTISRDNAKYTVYLQMNSLKPEDTAVYYCNAEVYELFVVYSALDYWGQGTQVTVSS | low polyreactivity |
| QVQLVESGGGLVQAGGSLRLSCAASGSIFPGYTMGWYRQAPGKERELVAAISRRGGSTYYADSVKGRITISRDNAKNSVYLQMNSLKPEDTAVYYCAKVPDYRFEYWGQGTQVTVSS | high polyreactivity |
| QVQLVESGGGLVQAGGSLRLSCAASGSIFPHNAMGWYRQAPGKERELVAAISVSGGSTYYADSVKGRFTISRDNAKNTVYLQMNSLKPEDTAVYYCATRYGRARAYYYWGQGTQVTVSS | high polyreactivity |
| QVQLVESGGGLVQAGGSLRLSCAASGSIFPHYAMGWYRQAPGKERELVAAISRSGTSTYYADSVKGRFTISRDNAKNTVYLQMNSLKPEDTAVYYCAAGYWFSYSRVTRYDYWGQGTQVTVSS | high polyreactivity |
| QVQLVESGGGLVQAGGSLRLSCAASGSIFPLNAMGWYRQAPGKERELVATISWRGGITYYADSVKGRFTISRDNAKNTVYLQMNSLKPEDTAVYYCATVGRWNSLWYRYRYDYWGQGTQVTVSS | low polyreactivity |
| QVQLVESGGGLVQAGGSLRLSCAASGSIFPLYAMGWYRQAPGKERELVAAISWSGGSTYYADSVKGRFTISRDNAKNTVYLKMNSLKPEDTAVYYCATLYISTSGYIYEGDYWGQGTQVTVSS | high polyreactivity |
| QVQLVESGGGLVQAGGSLRLSCAASGSIFPPNAMGWDRQAPGKERELVAGISQSGGSTYYAESVKGRFTISRDNAKNTVYLQMNSLKPEDTAVYYCARSFYSGRRYYYWGQGTQVTVSS | high polyreactivity |
| QVQLVESGGGLVQAGGSLRLSCAASGSIFPPYAMGWYRPAPGKERELVAAINSGGSTNYADSVKGRFTISRDNAKNTVYLQMNSLIPEDTAVYYCNVDESYDWRTRKYDSWGQVTQVTVSS | low polyreactivity |
| QVQLVESGGGLVQAGGSLRLSCAASGSIFPPYAMGWYRQAPGKERELVAAIRRGSSTYYADSVKGRFTISRDNAKNTVYLQMNSLKPEDTAVYYCAARGRYRIGPGRYGKRYDYWGQGTQVTVSS | high polyreactivity |
| QVQLVESGGGLVQAGGSLRLSCAASGSIFPPYAMGWYRQAPGKERELVATITIRGGSTYYADSVKGRFTISRDNAKNTVYLQMNSLKPEDTAVYYCAADYTKYYRRYYYWGQGTQVTVSS | high polyreactivity |
| QVQLVESGGGLVQAGGSLRLSCAASGSIFPQYAMGWYRQAPGKERELVAAISSSGGRTYYADSVKGRFTISRDNAKNTVYLQMNSLKPEDTAVYYCAADGSYAIGGYGYWGQGTQVTVSS | high polyreactivity |
| QVQLVESGGGLVQAGGSLRLSCAASGSIFPQYAMGWYRQAPGKERELVAAITRSGGGTHYADSVKGRFTISRDYAKNTVYFQMNSLKPEDTAVYYCAKAGYRSEFEYWGQGTQVTVSS | low polyreactivity |
| QVQLVESGGGLVQAGGSLRLSCAASGSIFPRNAMGWYRQAPGKERELVAGISSGGSTNYADSVKGRFTISRDNAKNTVYLQMNSLKPEDTAVYYCAARQWIRNLGFGYSIYYYWGLGTQVTVSS | high polyreactivity |

| Sequence | polyreactivity (PSR sort gate) |
| --- | --- |
| QVQLVESGGGLVQAGGSLRLSCAASGSIFPRYAMGWYRQAPGKERELVAAITGSGSSTYYADSVKGRFTISRDNAKNTVYLQMNSLKPEDTAVYYCAARKARPPCPHPFDYYWGEGTQVTVSS | low polyreactivity |
| QVQLVESGGGLVQAGGSLRLSCAASGSIFPRYAMGWYRQAPGKERELVAAITNGGSTDYADSVKGRFTISRDNAKKTVYLLMNSLKPEDTAGYYCAADLAVGIYPEDGDYWGQGTKVTVSS | low polyreactivity |
| QVQLVESGGGLVQAGGSLRLSCAASGSIFPRYFMGWYRQAPGKERELVAAISQSGGSTYYADSVKGRFTISRDNAKNTVYLQMNSLKPEDTAVYYCAAEVRGWRVDYYYWGQGTQVTVSS | high polyreactivity |
| QVQLVESGGGLVQAGGSLRLSCAASGSIFPRYVMGWYRQAPGTARELVAAISGSGGSTYYADSVKGRFTISRDNAKNTVYLQMNSLKPEDTAVYYCNKLRRRVNRDIDDYWGQGTQVTVSS | high polyreactivity |
| QVQLVESGGGLVQAGGSLRLSCAASGSIFPSNAMGWYRQAPGKERELVAAINRDGISNYADSVKGRFTISRDNAKNTVYLQMNSLKPEDTAVYYCAAEFAWQWWEYGYWGQGTQVTVSS | low polyreactivity |
| QVQLVESGGGLVQAGGSLRLSCAASGSIFPSYAMGWYRPAPGIERELVAAINWDGGSTFYADSVKGRFTISRDNAKNTVYLQMNSLKPEDTAVYYCAKYTYQEIRNVGRRGHYYWGQGTQVTVSS | low polyreactivity |
| QVQLVESGGGLVQAGGSLRLSCAASGSIFPSYAMGWYRQAPGKERELVATISGSGTRTYYADSVKGRFTISRDNAKNTVYLQMNILKPEDTAVYYCAADPWLGTGRYDYWGQGTQVTVSS | low polyreactivity |
| QVQLVESGGGLVQAGGSLRLSCAASGSIFPTYAMGCYRQAPGKERELVAAIRSGSNTYYADSVKGRFTISRDNAKNTVYLQMNSLKPEDTAVYYCNVGPQRKYPGRRTVPFGYWGQGTQVTVSS | low polyreactivity |
| QVQLVESGGGLVQAGGSLRLSCAASGSIFPVNVMGWYRQAPGKERELVADITSTGTYYADSVKGRFTISRDNAKNTVYLQMNSLKPEDTAVYYCAKAGGSWYRRYYYWGQGTQVTVSS | high polyreactivity |
| QVQLVESGGGLVQAGGSLRLSCAASGSIFPVYAMGWYRPAPGKERELVAAISLRAGNTYYADSVKGRFTISRDNAKNTVYLQMNSLKPEDTAVYDCAVELFRSTTIYDYWGQGTLVTVSS | high polyreactivity |
| QVQLVESGGGLVQAGGSLRLSCAASGSIFPVYAMGWYRQAPGKERELVAAISWIGGGTYYADSVKGRFTISRDNAKNTVYLQMNSLKPEDTAVYYCAAVPYTSEYDYWGQGTKVTVSS | high polyreactivity |
| QVQLVESGGGLVQAGGSLRLSCAASGSIFPVYAMGWYRQAPGKERELVATIRSGGARTYYADSVKGRFTISRDNAKNTVYLQMNSLKPEDTAVYYCATRWPHYGGYYYWGQGTQVTVSS | high polyreactivity |
| QVQLVESGGGLVQAGGSLRLSCAASGSIFPVYAMGWYRQAPGKQRELVAAITTAGRTYYADSVKGRFTISRDNAKNTVYLQMNSLKPEDTAVYYCNARSRKGLTVDGGYWGQGTQVTVSS | high polyreactivity |
| QVQLVESGGGLVQAGGSLRLSCAASGSIFPWYAMGWYRQAPGKEKELVAAIRWRDGRTYYADSVKGRFTISRDNAKNTVYLQMNSLKPEDTAVYYCAAVSTDKYVYGVDVYLYDYWGQGTQVTVSS | low polyreactivity |
| QVQLVESGGGLVQAGGSLRLSCAASGSIFPWYAMGWYRQAPGNERELVAAINQIGGGGTNYADSVKGRFTISRDNAKNTVYLQMNSLKPEDTAVYYCAADHVWIRAYRFTKGDDYWGQGTQVTVSS | low polyreactivity |
| QVQLVESGGGLVQAGGSLRLSCAASGSIFPYNAMGWYRPAPGKERELVATISSGGSTNYADSVKGRFTISRDNAMNTVYLQMNIMKPEDTAVYYCAKETIGQDPVSGAWARHEYDYWGQGTQVTVSS | low polyreactivity |
| QVQLVESGGGLVQAGGSLRLSCAASGSIFPYNAMGWYRQAPGKERELVAAISKRGGSTYYADSVKGRFTISRDNAKNTVYLQMNSLKPEDTAVYYCAARYPPYRSWYSYDYWGQGTQVTVSS | low polyreactivity |
| QVQLVESGGGLVQAGGSLRLSCAASGSIFPYNVMGWYRQAPGKERELVAAISTRGGRTYYADSVKGRVTISRDNAKNTVYLQMNSLKPEDTAVYDCATAGGPYSASGYYGGQGTQVTVSS | high polyreactivity |
| QVQLVESGGGLVQAGGSLRLSCAASGSIFPYNVMGWYRQTPGKERELVADIRSDGSTTYADSVKGRFTISRDNAKNTVYLQMNSLKPEDTAVYDCAAVWTYLYSYSLWLEYDYWGQGTQVTVSS | low polyreactivity |
| QVQLVESGGGLVQAGGSLRLSCAASGSIFPYYAMGWNRQAPGKERELVATITSRGGSTYYADSVKGRFTISRDNAKNTVYLQMNSLKPEDTAVYYCAKEYRYYRRRYDYWGQGTQVTVSS | high polyreactivity |
| QVQLVESGGGLVQAGGSLRLSCAASGSIFPYYAMGWSRQAPGKERELVASINQSDGTTYYADSVKGRFTISRDNAKNTVYLQMNSLKPEDTAVYYCAAAYFYWRVDKYYYWGQGTQVTVSS | low polyreactivity |
